From patent publication US20120204273A1, “COMPOSITIONS RELATING TO A PHOSPHOPROTEIN AND METHODS OF USE” (SANFORD-BURNHAM MEDICAL RESEARCH INSTITUTE, priority 2010, published 2012)
Residue numbers refer to the chain shown, from its start.

B1: HA-CDP138-WT: full-length human KIAA0528 (CDP138) tagged with 3HA epitope at the N-terminus, pCMV5 vector (protein)
chain: MPGKLKVKIVAGRHLPVMDRASDLTDAFVEVKFGNTTFKTDVYLKSLNPQWNSEWFKFEVDDEDLQDEPLQITVLDHDTYSANDAIGKVYIDIDPLLYSEAATVISGWFPIYDTIHGIRGEINVVVKVDLFNDLNRFRQSSCGVKFFCTTSIPKCYRAVIIHGFVEELVVNEDPEYQWIDRIRTPRASNEARQRLISLMSGELQRKIGLKVLEMRGNAVVGYLQCFDLEGESGLVVRAIGTACTLDKLSSPAAFLPACNSPSKEMKEIPFNEDPNPNTHSSGPSTPLKNQTYSFSPSKSYSRQSSSSDTDLSLTPKTGMGSGSAGKEGGPFKALLRQQTQSALEQREFPFFTLTAFPPGFLVHVGGVVSARSVKLLDRIHNPDEPETRDAWWAEIRQEIKSHAKALGCHAVVGYSESTSICEEVCILSASGTAAVLNPRFLQDGTVEGCLEQRLEENLPTRCGFCHIPYDELNMPFPAHLTYCYNCRKQKVPDVLFTTIDLPTDATVIGKGCLIQARLCRLKKKAQAEANATAISNLLPFMEYEVHTQLMNKLKLKGMNALFGLRIQITVGENMLMGLASATGVYLAALPTPGGIQIAGKTPNDGSYEQHISHMQKKINDTIAKNKELYEINPPEISEEIIGSPIPEPRQRSRLLRSQSESSDEVTELDLSHGKKDAFVLEIDDTDAMEDVHSLLTDVPPPSGFYSCNTEIMPGINNWTSEIQMFTSVRVIRLSSLNLTNQALNKNFNDLCENLLKSLYFKLRSMIPCCLCHVNFTVSLPEDELIQVTVTAVAITFDKNQALQTTKTPVEKSLQRASTDNEELLQFPLELCSDSLPSHPFPPAKAMTVEKASPVGDGNFRNRSAPPCANSTVGVVKMTPLSFIPGAKITKYLGIINMFFIRETTSLREEGGVSGFLHAFIAEVFAMVRAHVAALGGNAVVSYIMKQCVFMENPNKNQAQCLINVSGDAVVFVRESDLEVVSSQQPTTNCQSSCTEGEVTT
B2: CDP138-WT: wild-type CDP138 vector transfected into PC12 cells (protein, UniProt Q86YS7 1-1000, looked up)
C2 domain-containing protein 5: B1 chain
B3: CDP138-5DA: dominant negative mutant CDP138-5DA vector transfected into PC12 cells (protein, UniProt Q86YS7 1-1000, looked up, variant D19A D26A D76A D78A D84A)
C2 domain-containing protein 5: B1 chain with D19A, D26A, D76A, D78A, D84A

How the values were obtained:
[1] = tested on: 3T3-L1 adipocytes; assay: myc-GLUT4-GFP translocation to the cell surface; type: cell-based, mouse; conditions: insulin 100 nM, 30 min
Description: FIG. 2, panels A-C show knockdown of CDP138 in 3T3-L1 adipocytes inhibits insulin-stimulated glucose transport (A) and myc-GLUT4-GFP translocation (B), but not endogenous GLUT4 movement to the periphery detected in TIRF zone (C). (A): Differentiated adipocytes at day 5 were transfected with siRNAs against mouse 5730419I09Rik or the scrambled siRNA (Scr) as described earlier (Jiang et al., 2003) for 60 hrs, then serum starved overnight. Cells were then treated with or without insulin (1 nM and 100 nM) for 30 min for the glucose uptake assay, or 15 min for immunoblotting of CDP138, pAkt, Akt and β-actin. Glucose transport data are presented as mean±SD of 4 independent experiments. *P<0.05 vs Scr Insulin (1 nM) group; **P<0.01 vs Scr Insulin (100 nM) group. (B): Day 5 adipocytes were transfected with siRNAs and myc-GLUT4-GFP for 60 hrs and then serum starved overnight. Cells were then treated with insulin (1 nM) for 20 min. Cell surface Myc-GLUT4-GFP was detected with anti-myc monoclonal Ab (9E10) and Alexa Fluor 568-labeled goat anti-mouse IgG in non-permeablized cells. The Myc signal and GFP signal were quantified as previously described (Jiang et al., 2002). Data presented are representative microscopic images and mean±SD of about 160 GFP-positive cells in each group from three independent experiments. **P<0.01 vs Scr Insulin (1 nM) group. […] GLUT4 was detected with a goat anti-GLUT4 Ab and Alexa Fluor 488-conjugated donkey anti-goat Ab in permeabilized cells. Top and middle panels show 100 nm TIRF zone and representative GLUT4 TIRFM images, respectively. Data are mean±SD of 3 independent experiments. **P<0.01 vs Scr Insulin groups.
GLUT4 translocation detection with wide field fluorescence and TIRF microscopy: Both wide field and TIRF microscopy were used to detect myc-GLUT4-GFP translocation to the cell surface as previously described (Jiang et al., 2002) and herein.
To test the effect of RNAi-induced gene specific knockdown of CDP138 or overexpression of CDP138 mutants on GLUT4 translocation, siRNAs or CDP138 constructs were transfected into adipocytes together with myc-GLUT4-GFP by electroporation as previously described (Jiang et al, 2003). […] Cells were washed with cold PBS, fixed with 4% formaldehyde and immunostained. Briefly, for siRNA study, the cell surface Myc-GLUT4-GFP was visualized with mouse anti-Myc Ab (9E10) and AlexaFluoro568-labeled goat anti-mouse secondary Ab (Invitrogen) in PBS containing 1% FBS. After washing, the coverslip were mounted with Prolong antifade reagent (Invitrogen, Eugene Oreg.). Fluorescence microscopy was carried as described below. Then, images were acquired with wide field microscopy as described below. For the study with overexpressed HAtagged CDP138 constructs, the cell surface Myc-GLUT4-GFP was visualized with rabbit anti-Myc Ab (Cell signaling, Inc) and AlexaFluoro568-labeled goat anti-rabbit secondary Ab (InVitrogen) in PBS containing 1% FBS. Cells were further permeabilized with PSB containing 0.5% Tween-20, and HA-tagged protein was detected with a mouse anti-HA epitope primary Ab followed by AlexaFluoro-350-labelled goat anti-mouse IgG. Insulin-induced myc-GLUT4 accumulation (AlexaFluoro-568 signal) within the evanescence excitation field (100 nm from dorsal membrane) in transfected adipocytes was measured with a Nikon Eclipse-Ti microscope equipped with a CoolSNAP HQ2 camera and laser scanning TIRF capacity. Total GLUT4-GFP signals and […] Alexa Fluoro-350 signals were acquired with wide field imaging to identify double-transfected cells. The ratio of myc-GLUT4 signal in the TIRF zone to the total Epi-GFP signal in wide field was used as a measure of GLUT4 translocation to the cell surface.
Image Analysis and Quantification: TIRF and wide field fluorescence microscopy were performed using a Nikon inverted microscope (Melville, N.Y.) with a cooled charge-coupled device camera. […]

[2] = tested on: CHO-T cells; assay: Cell division of CHO-T cells overexpressing HA-CDP138; type: cell-based
From the text: Large cells bodies with multiple nuclei were formed in HA-tagged CDP138 positive CHO-T cells.
HA-CDP138 positive cell is 3-5 times bigger than HA-negative cells (FIG. 14).

[3] = tested on: PC12 cells; assay: Survival of differentiated PC12 neuronal cells under serum starvation; type: cell-based; conditions: for cell death / survival after 24 hours of starvation / cell death within 14 hours of starvation: transfected 24 h, NGF 24 h, serum starved
Description: Cells were serum starved for 6 hours (6 H), 14 hours (14 H) or 24 hours (24 H) before counting the number of cells in two wells.
Cells were serum starved for 24 hours before counting the number of bid surviving differentiated neuronal cells in two wells.
In order to determine the affects of CDP138 of neuronal cell survival, PC12 cells were transfected with wild-type CDP138-WT vector, dominant negative mutant CDP138-5DA vector or an empty vector for 24 h followed by adding NGF (neuron growth factor) for 24 h. Then cells were serum starved for 6 hours, 14 hour, and 24 hour before counting cell number in 2 wells.
(§1) In addition to counting the total number of cells that survived, the number of big surviving differentiated neuronal cells were also assessed following 24 hours of starvation. […] This was a 50% increase in the number of big differentiated cells.

[4] = tested on: PC12 cells; assay: NGF-induced neurite outgrowth in PC12 cells; type: cell-based
Description: FIG. 13, panels A and B, show the expression pattern of CDP138 in various tissues and the effects of overexpressed wild-type and mutant CDP138 in neuronal growth factor (NGF)-induced neurite outgrowth in PC12 cells. A: CDP138 is highly expressed in the brain and distributed in the neurite and synapse of neuronal cells. 30 μg of total protein was assayed for all tissues, except only 15 μg of total protein from brain tissue was assayed in the immunoblotting of panel A. Exemplary protein distribution of CDP138-mCherry in a PC12 cell is also shown. B: Overexpressed CDP138-WT enhances neurite growth, whereas the CDP138-5DA mutant had the opposite effect.
as §1

Row | Molecule | effect of overexpression on insulin-stimulated myc-GLUT4-GFP translocation (TIRF myc / Epi GFP) [1] | size of positive cells relative to HA-negative cells [2] | positive cells with big multiple nuclei ([2]; three different experiments) | increase in the number of big differentiated cells over empty vector ([3]; 24 hours of starvation) [%] | number of big differentiated neuronal cells per well ([3]; 24 hours of starvation) | cell death / survival after 24 hours of starvation [3] | cell death within 14 hours of starvation [3] | increase in cell body length (fold over cell body length, NGF-induced neurite outgrowth) [4]
1 | B1 | did not significantly alter | 3-5 times | about 24.6% | – | – | – | – | –
2 | B2 | – | – | – | 50 | approximately 1650 per well | continued to survive | no appreciable cell death | ~4 fold
3 | B3 | – | – | – | – | did not form any | the highest amount of cell death | significant cell death | approximately 1 fold
